Where no end group is shown, it is not given here. Me2 = dimethyl (dimethylated lysine)
Molecular target: Human 53BP1-Tudor (residues 1484-1603) (human, UniProt Q12888 1484-1603)
Experiment: ITC

Human 53BP1-Tudor (residues 1484-1603), sequence (Q12888 1484-1603): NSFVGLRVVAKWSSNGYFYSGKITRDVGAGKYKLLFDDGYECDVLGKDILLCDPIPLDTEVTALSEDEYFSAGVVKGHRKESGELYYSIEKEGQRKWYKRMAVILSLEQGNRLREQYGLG

Row | Kd [µM] | Binder
1 | 8 | TSRHKK(Me2)LMFK (peptide, UniProt P04637 377-386, looked up) [p53K382me2 peptide (residues 377-386)]
2 | 52 | SSHLK(Me2)SKKGQ (peptide, UniProt P04637 366-375, looked up) [p53K370me2 peptide (residues 366-375)]
